Measured values taken from the Human Domainome abundance scans (Beltran et al. 2025).

B1: Zinc finger homeobox protein 4, residues 2183 to 2238; numbered along this chain, Q86UP3 (parent)
chain: SSRTRFTDYQLRVLQDFFDTNAYPKDDEIEQLSTVLNLPTRVIVVWFQNARQKARK

Variants of: B1
Assay: abundance fitness (aPCA) (normalised: wild type 0, dead -1); higher = more abundant; growth selection in yeast, the domain comes from the species named
Conditions: Homo sapiens

Abundance fitness: each site, then its substitutions
F18: Y 0.101, E -0.486, Q -0.329, H -0.139, S -0.225, C -0.139, P -0.891, R -0.222, T -0.449, K -0.194, A -0.117, D -0.887, W -0.027, N -0.459, I -0.16, G -0.711
Q10: R -0.657, A -0.459, F -0.928, T -0.176, H -0.118, M -0.14, Y -0.787, G -0.69, W -0.826, I -0.391, S -0.335, D -0.454, L -0.736, C -0.395, V -0.547, E -0.297, K -0.512
F6: Q -0.568, G -0.335, E -0.344, W -0.257, T -0.266, A -0.654, V -0.133, M 0.111, D -0.09, N -0.375, R -0.726, H -0.328, C -0.094, P -0.697, L -0.122, Y -0.124, I -0.09, K -0.522
R12: S -0.203, T -0.066, C -0.732, M -0.631, P -0.608, H -0.166, N -0.017, G -0.147, F -0.81, Y -0.702, L -0.309, A -0.263, V -0.544, I -0.623, Q -0.014
D8: A -0.106, N -0.351, G -0.225, W -0.58, M -0.125, Y -0.662, Q 0.103, C -0.136, I -0.511, V -0.282, L -0.229, E -0.151, P 0.096, S -0.315, R -0.309, T -0.257, F -0.361, H 0.124
L14: Y -1.08, G -0.876, I -0.184, N -1.15, F -0.433, Q -1.02, E -1.07, V -0.206, C -0.181, R -0.911, M 0.049, P -0.931, A -0.793, S -0.731, T -0.93, W -0.895
D19: W -0.292, A 0.108, S -0.131, E -0.235, C -0.236, M -0.061, I -0.234, T 0.164, N -0.087, L -0.028, Y -0.171, G -0.032, R -0.147, K -0.074, H -0.173, F -0.146, Q -0.071, P -0.43
Y9: K 0.318, R 0.11, N 0.057, V -0.038, W 0.02, Q 0.283, D -0.128, A 0.167, M 0.025, S 0.14, G 0.062, F 0.261, T 0.167, E 0.081, C -0.102, I -0.351
T20: F -0.503, W -0.158, P -0.57, L -0.205, S -0.047, G -0.041, I -0.308, C 0.002, Q -0.196, N -0.058, E -0.22, M -0.101, H -0.179, R 0.072, A 0.108, D -0.205, K 0.133, V -0.199
K25: P -0.244, S -0.025, R -0.047, G -0.072, A -0.203, F -0.467, C -0.111, D -0.177, N -0.156, L -0.233, M -0.323, E -0.455
N21: D -0.128, P -0.718, Y -0.565, R -0.181, E -0.197, K -0.201, L -0.488, G -0.387, F -0.451, S -0.2, C 0.346, M -0.414, Q -0.497, T -0.027, H -0.219, I -0.187, V -0.279, A -0.176, W -0.556
Y23: S 0.032, Q -0.173, N -0.369, V -0.039, L 0.008, I -0.219, G -0.169, C -0.228, E 0.361, R 0.047, M 0.031, F -0.084, P -0.345, A -0.097, W -0.061, T -0.093, D 0.313
L11: A -0.108, I -0.031, D 0.066, T -0.063, R -0.26, Y -0.194, E 0.095, H -0.204, G -0.016, F -0.011, S 0.138, V -0.024, P -1.19, C -0.341, N 0.053, M -0.061
Q15: E -0.139, F -0.186, I -0.141, G -0.102, Y -0.27, A -0.05, S -0.004, T -0.069, N -0.158, P -0.708, W -0.333, R -0.107, V -0.095, M 0.058, D -0.072, L -0.036
D16: Q 0.027, T -0.29, F -0.806, H -0.193, N -0.034, R -0.083, E 0.014, C -0.32, S 0.042, M -0.323, I -0.644, P -0.357, G 0.093, V -0.25, A -0.065, Y -0.458, L -0.602, K -0.108, W -0.838
T7: K -0.455, H -0.597, V -0.299, L -0.384, Y -0.574, G -0.333, C -0.586, P -0.368, W -0.719, D -0.081, A -0.14, Q -0.27, S -0.014, M -0.278, R -0.67
A22: Q 0.005, D 0.002, W -0.169, V -0.086, R 0.005, Y -0.309, K -0.116, E -0.016, M 0.153, P 0.133, C 0.033, G -0.186, F -0.228, I -0.065, N -0.077, S 0.074, L -0.219
V13: I -0.001, H 0.203, N -0.064, W -0.377, D 0.079, T 0.013, Y 0.092, F -0.056, Q 0.057, M 0.44, G 0.047, S -0.068, R 0.079, P -1.02, A -0.012, C -0.181
F17: E -0.252, T -0.086, N 0.049, R 0.02, D -0.591, L -0.12, S -0.097, I -0.135, G -0.243, A -0.006, Y -0.196, P -1, V -0.25, H 0.079, M -0.004, Q 0.051, K -0.094
P24: M -0.596, F -0.792, I -0.292, C -0.567, Y -0.746, R -0.657, L -0.419, H -0.703, T -0.698, A -0.272, E -0.823, K -0.817, V -0.501, N -0.945, G -0.813, W -0.593, Q -0.703, D -0.832
